IntAct's records for PubMed 16682949

B1: Nuclear distribution protein nudE homolog 1 (Homo sapiens), Q9NXR1 (parent)
chain: MEDSGKTFSSEEEEANYWKDLAMTYKQRAENTQEELREFQEGSREYEAELETQLQQIETRNRDLLSENNRLRMELETIKEKFEVQHSEGYRQISALEDDLAQTKAIKDQLQKYIRELEQANDDLERAKRATIMSLEDFEQRLNQAIERNAFLESELDEKENLLESVQRLKDEARDLRQELAVQQKQEKPRTPMPSSVEAERTDTAVQATGSVPSTPIAHRGPSSSLNTPGSFRRGLDDSTGGTPLTPAARISALNIVGDLLRKVGALESKLASCRNLVYDQSPNRTGGPASGRSSKNRDGGERRPSSTSVPLGDKGLDTSCRWLSKSTTRSSSSC
partner: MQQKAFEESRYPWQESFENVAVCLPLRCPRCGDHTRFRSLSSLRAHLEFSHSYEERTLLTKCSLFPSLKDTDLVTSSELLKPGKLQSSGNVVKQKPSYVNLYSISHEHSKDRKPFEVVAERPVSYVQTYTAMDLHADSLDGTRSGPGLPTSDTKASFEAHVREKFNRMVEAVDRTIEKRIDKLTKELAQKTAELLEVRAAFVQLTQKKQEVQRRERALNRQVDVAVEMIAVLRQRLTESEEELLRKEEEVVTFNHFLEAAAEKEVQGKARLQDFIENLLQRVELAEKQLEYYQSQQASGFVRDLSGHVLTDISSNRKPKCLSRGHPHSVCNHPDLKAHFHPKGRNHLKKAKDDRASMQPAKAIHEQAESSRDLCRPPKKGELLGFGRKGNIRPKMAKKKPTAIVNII
B2: Nuclear distribution protein nudE homolog 1 (Homo sapiens), Q9NXR1 (parent)
chain: B1 chain

Variants of: B1
Settings: with zn365_human ZNF365, Q70YC5

effect of a mutation on the interaction | Variant
decreasing interaction | MEDSGKTFSSEEEEANYWKDLAMTYKQRAENTQEELREFQEGSREYEAELETQLQQIETRNRDLLSENNRLRMELETIKEKFEVQHSEGYRQISALEDDLAQTKAIKDQLQKYIRELEQANDDLERAKRATIMSLEDFEQRLNQAIERNAFLESELDEKENLLESVQRLKDEARDLRQELAVQQKQEKPREPMPSSVEAERTDTAVQATGSVPSEPIAHRGPSSSLNEPGSFRRGLDDSTGGEPLEPAARISALNIVGDLLRKVGALESKLASCRNLVYDQEPNRTGGPASGRSSKNRDGGERRPSSTSVPLGDKGLDTSCRWLSKSTTRSSSSC [T191E;T215E;T228E;T243E;T246E;S282E]

Variants of: B1
Settings: with zn365_human ZNF365, Q70YC5
Remark: another data set of the same source

effect of a mutation on the interaction | Variant
decreasing interaction | MEDSGKTFSSEEEEANYWKDLAMTYKQRAENTQEELREFQEGSREYEAELETQLQQIETRNRDLLSENNRLRMELETIKEKFEVQHSEGYRQISALEDDLAQTKAIKDQLQKYIRELEQANDDLERAKRATIMSLEDFEQRLNQAIERNAFLESELDEKENLLESVQRLKDEARDLRQELAVQQKQEKPREPMPSSVEAERTDTAVQATGSVPSEPIAHRGPSSSLNEPGSFRRGLDDSTGGEPLEPAARISALNIVGDLLRKVGALESKLASCRNLVYDQEPNRTGGPASGRSSKNRDGGERRPSSTSVPLGDKGLDTSCRWLSKSTTRSSSSC [T191E;T215E;T228E;T243E;T246E;S282E]

Variants of: B2
Settings: with cdk1_human CDK1, P06493
Chain of cdk1_human CDK1, P06493 (P06493 whole entry, looked up): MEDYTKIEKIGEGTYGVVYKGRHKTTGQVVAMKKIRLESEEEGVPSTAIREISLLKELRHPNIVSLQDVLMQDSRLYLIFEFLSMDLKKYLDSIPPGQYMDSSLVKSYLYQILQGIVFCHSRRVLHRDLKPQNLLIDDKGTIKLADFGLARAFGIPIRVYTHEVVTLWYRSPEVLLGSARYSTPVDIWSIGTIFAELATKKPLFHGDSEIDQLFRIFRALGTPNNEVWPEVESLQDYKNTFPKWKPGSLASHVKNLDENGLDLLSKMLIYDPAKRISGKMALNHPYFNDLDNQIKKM

effect of a mutation on the interaction | Variant
decreasing interaction | MEDSGKTFSSEEEEANYWKDLAMTYKQRAENTQEELREFQEGSREYEAELETQLQQIETRNRDLLSENNRLRMELETIKEKFEVQHSEGYRQISALEDDLAQTKAIKDQLQKYIRELEQANDDLERAKRATIMSLEDFEQRLNQAIERNAFLESELDEKENLLESVQRLKDEARDLRQELAVQQKQEKPRVPMPSSVEAERTDTAVQATGSVPSVPIAHRGPSSSLNVPGSFRRGLDDSTGGVPLVPAARISALNIVGDLLRKVGALESKLASCRNLVYDQVPNRTGGPASGRSSKNRDGGERRPSSTSVPLGDKGLDTSCRWLSKSTTRSSSSC [T191V;T215V;T228V;T243V;T246V;S282V]
